{
  "source": "patent US20220127354A1",
  "about": "(Amgen, published 2022)",
  "binders": {"B1": {"name": "hu anti-<huCDH19> 20D3.1 (Ab ID 13878) (antibody, human IgG1, lambda, V domains shown)", "VH": "QVQLVQSGAEVKKPGASVKVSCKVSGYTFTSYFIHWVRQAPGQGLEWMGIINPISVSTSYAQKFQGRVTMTRDTSTSTVFMELSSLRSEDTAVYYCARGGIQLWLHFDYWGQGTLVTVSS", "VL": "not shown", "notes": "huIgG1z / huLLC-C2; Bin 2; also called 16H2; 23E7"}, "B2": {"name": "hu anti-<huCDH19> 19B5.1 (Ab ID 13885) (antibody, human IgG1, lambda, V domains shown)", "VH": "B1 VH with F107L", "VL": "QSALTQPPSTTGTPGQRVTISCSGSRSNIGSNFVNWYKQLPGTAPKVLIYTNNQRPSGVPDRFSGSKSGTSASLAISGLQSEDESDYYCATWDDSMNGWVFGGGTKLTVLG", "notes": "huIgG1z / huLLC-C2; Bin 2"}, "B3": {"name": "hu anti-<huCDH19> 22D1.1 (Ab ID 13879) (antibody, human IgG1, lambda, V domains shown)", "VH": "B1 VH with K19R, F107L", "VL": "B2 VL with T10A, R26S", "notes": "huIgG1z / huLLC-C2; Bin 2"}, "B4": {"name": "hu anti-<huCDH19> 25F8.1 (Ab ID 13880) (antibody, human IgG1, lambda, V domains shown)", "VH": "B1 VH with V24A, F33Y, I54S, S55G, V56G, S59R", "VL": "not shown", "notes": "huIgG1z / huLLC-C2; Bin 2"}, "B5": {"name": "hu anti-<huCDH19> 22G10.1 (Ab ID 13877) (antibody, human IgG1, kappa, V domains shown)", "VH": "EVQLLESGGGLVQPGGSLRLSCAASGFTFSSYAMNWVRQAPGKGLEWVSTISGGGANTYYADSVKGRFTISSDNSKSTLYLQMNSLRAADTAVYHCAKGGMGGYYYGMDVWGQGTTVTVSS", "VL": "EIVMTQSPVTLSLSLGERATLSCRASQSISSNLAWFQQKPGQAPRLLIYGAFTRATGIPARVSGSGSGTEFTLTISSLQSEDFAVYYCQQYNYWPLTFGGGTKVEIKR", "notes": "huIgG1z / huKLC; Bin 3"}, "B6": {"name": "hu anti-<huCDH19> 4F7 (Ab ID 13591) (antibody, human IgG1, lambda, V domains shown)", "VH": "QVQLQESGPGLVKPSETLSLTCTVSGGSISSYSWSWIRQPPGKGLEWIGYIYYSGSTNYNPSLKSRVTISLDTSKNQFSLKLSSVTAADTAVYYCARNWAFHFDYWGQGTLVTVSS", "VL": "QSVLTQPPSVSGAPGQRVTISCTGSSSNIGTGYDVHWYQQLPGTAPKLLIHGNSNRPSGVPDRFSGSKSGTSASLAITGLQAEDEADYYCQSYDSSLSGWVFGGGTRLTVLG", "notes": "huIgG1z / huLLC-C1; Bin 1"}, "B7": {"name": "anti-CDH19 antibody 23A10 (Ab ID 13884) (antibody, human IgG1, lambda, V domains shown)", "VH": "QVQLVESGGGVVQPGRSLRLSCAASGFTFSRYGIHWVRQAPGKGLEWVAVIWYDGSNKYYADSVKGRFTISRDNSKNTLYLLMNSLRAEDSAVYYCARRAGIPGTTGYYYGMDVWGQGTTVTVSS", "VL": "SYELTQPPSVSVSPGQTASITCSGDRLGEKYVCWYQQKPGQSPILVIYQDNKWPSGIPERFSGSNSGNTATLTISGTQAMDEADYYCQAWDSSTVVFGGGTKLTVLG", "notes": "Bin 4"}, "B8": {"name": "hu anti-<huCDH19> 26D1.1 (1-469)(R27G,G82R) VH::huIgG1z + 26D1.1 (1-235)(H1Q,S7P) VL::huLLC-C2 (Ab ID 14088) (antibody, V domains shown)", "VH": "QVQLVQSGAEVKKPGASVKVSCKASGYTFTSYYMSWVRQAPGQGLEWMGIIHPSGGDTTYAQKFQGRVTMTRDTSTSTVYMELSSLRSEDTAVYYCARGGIKLWLHFDYWGQGTLVTVSS", "VL": "not shown", "notes": "Engineered variant of 26D1; the entries already carry the changes; Bin 2"}, "B9": {"name": "hu anti-<huCDH19> 4A9 VH::huIgG1z + 4A9 (1-239)(F47L) VL::huLLC-C1 (Ab ID 14056) (antibody, V domains shown)", "VH": "B6 VH with S31G, S33Y, I48F, G49A, I51F, Y52S, I69L, L71V, Y105F", "VL": "B6 VL with D34A, H51Y, S54N, S96R, R107K", "notes": "Engineered variant of 4A9; the entries already carry the changes; Bin 1"}, "B10": {"name": "hu anti-<huCDH19> 4A9 (1-468)(F55I,A56G) VH::huIgG1z + 4A9 (1-239)(F47L) VL::huLLC-C1 (Ab ID 14057) (antibody, V domains shown)", "VH": "B6 VH with S31G, S33Y, I51F, Y52S, I69L, L71V, Y105F", "VL": "B6 VL with D34A, H51Y, S54N, S96R, R107K", "notes": "as for B9"}, "B11": {"name": "hu anti-<huCDH19> 25F8.1 VH::huIgG1z + 25F8.1 (1-235)(K45Q,S102A) VL::huLLC-C2 (Ab ID 14094) (antibody, V domains shown)", "VH": "B1 VH with V24A, F33Y, I54S, S55G, V56G, S59R", "VL": "not shown", "notes": "Engineered variant of 25F8; the entries already carry the changes; Bin 2"}, "B12": {"name": "hu anti-<huCDH19> 4B10 (1-471)(R17G,D61E,D72E) VH::huIgG1z + 4B10 (1-236)(H45Q,A90T) VL::huKLC (Ab ID 14055) (antibody, V domains shown)", "VH": "QVQLVESGGGVVQPGGSLRLSCAASGFTFSSYDMHWVRQAPGKGLEWVAVISYEGTNEYYAESVKGRFTISRDTSKNTLYLQMNSLRAEDTAVYYCARERYFDWSFDYWGQGTLVSVSS", "VL": "EIVLTQSPGTLSLSPGERATLSCRASQSVSNTYLAWYQQRPGQAPRLLIYGASSRATGIPDRFSGSGSGTDFTLTISSLEPEDFAVYYCQQYSNSWTFGQGTKVEIKR", "notes": "Engineered variant of 4B10; the entries already carry the changes; Bin 4"}, "B13": {"name": "hu anti-<huCDH19> 25G10.1 (Ab ID 13883) (antibody, human IgG1, kappa, V domains shown)", "VH": "QVQLQESGPGLVKPSETLSLTCTVSGGSISGYYWSWIRQPPGKGLEWIGYIYYIGSTNYNPSLKSRVTMSVDTSKNQFSLKLSSVTAADTAVYYCARDGSSGWYRWFDPWGQGTLVTVSS", "VL": "EIVLTQSPGTLSLSPGERATLSCRASQSVSSSYLAWYQQKPGQAPRLLIFGASSRATGIPDRFSGSGSGTDFTLTISRLEPEDFAVYHCQQYGNSPLTFGGGTKVEIKR", "notes": "huIgG1z / huKLC; Bin 3"}, "B14": {"name": "hu anti-<huCDH19> 16C1.1 (Ab ID 13875) (antibody, human IgG1, kappa, V domains shown)", "VH": "B13 VH with V71I, K81T, V85L, Y94F", "VL": "B13 VL with R78G", "notes": "huIgG1z / huKLC; Bin 3"}},
  "note": "Numbering of substitutions follows the chain as printed. In names and notes the source's numbering stands.",
  "data": [
    {"target": "T1, Cyno Cadherin-19 (cynomologous monkey (Macaca …, UniProt Q9H159 44-772 (human entry)))", "T1 construct": "also called cynomologous monkey CDH-19", "T1 chain": "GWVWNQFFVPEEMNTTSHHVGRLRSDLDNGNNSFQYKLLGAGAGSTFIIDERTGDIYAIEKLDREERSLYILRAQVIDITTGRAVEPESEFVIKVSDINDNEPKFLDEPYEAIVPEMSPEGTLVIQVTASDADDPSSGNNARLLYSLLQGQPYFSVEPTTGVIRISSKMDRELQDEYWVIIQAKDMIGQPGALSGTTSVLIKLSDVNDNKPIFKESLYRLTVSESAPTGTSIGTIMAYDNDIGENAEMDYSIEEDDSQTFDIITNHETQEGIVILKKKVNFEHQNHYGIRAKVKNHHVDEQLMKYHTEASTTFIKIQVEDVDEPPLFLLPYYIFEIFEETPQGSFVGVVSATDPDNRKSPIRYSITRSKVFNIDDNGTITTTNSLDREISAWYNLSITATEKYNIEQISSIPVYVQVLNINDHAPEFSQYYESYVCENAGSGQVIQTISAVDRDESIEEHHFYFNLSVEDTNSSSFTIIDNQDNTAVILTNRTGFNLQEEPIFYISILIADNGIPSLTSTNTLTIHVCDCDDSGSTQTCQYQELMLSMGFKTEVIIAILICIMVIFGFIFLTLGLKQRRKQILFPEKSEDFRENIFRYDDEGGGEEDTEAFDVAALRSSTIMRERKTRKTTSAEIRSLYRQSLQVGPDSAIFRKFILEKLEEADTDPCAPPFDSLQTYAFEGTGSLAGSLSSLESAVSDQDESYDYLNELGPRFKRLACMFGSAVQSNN", "assay": "FACS, recombinant cynomologous CDH-19", "values": [
      {"binder": "B1", "binding result": "binds"},
      {"binder": "B2", "binding result": "binds"},
      {"binder": "B3", "binding result": "binds"},
      {"binder": "B4", "binding result": "binds"},
      {"binder": "B5", "binding result": "binds"},
      {"binder": "B6", "binding result": "binds"},
      {"binder": "B7", "binding result": "binds"}
    ]},
    {"target": "huCDH19(44-772) with Flag tag (construct A, Hu EC1-5) (human, UniProt Q9H159 44-772)", "assay": "flow cytometry, transfected 293T cells", "from_the_text": "(§1) The experiment included assaying the anti-CDH19 antibodies against mouse Cadherin19 to determine suitability for binning on these human/mouse chimeras.", "values": [
      {"binder": "B8", "binding result": "binds"},
      {"binder": "B9", "binding result": "binds"},
      {"binder": "B10", "binding result": "binds"},
      {"binder": "B11", "binding result": "binds"},
      {"binder": "B4", "binding result": "binds"},
      {"binder": "B12", "binding result": "binds"}
    ]},
    {"target": "T2, huCDH19(44-141)::muCDH19(140-770) with Flag tag (construct B, Hu EC1) (human/mouse chimera)", "T2 construct": "leader left out; the entry starts at residue 44; also called C137897", "assay": "flow cytometry, transfected 293T cells", "from_the_text": "as §1", "values": [
      {"binder": "B8", "binding result": "binds"},
      {"binder": "B9", "binding result": "binds"},
      {"binder": "B10", "binding result": "binds"},
      {"binder": "B11", "binding result": "binds"},
      {"binder": "B4", "binding result": "binds"}
    ]},
    {"target": "T3, huCDH19(44-249)::muCDH19(248-770) with Flag tag (construct C, Hu EC1-2) (human/mouse chimera)", "T3 construct": "leader left out; the entry starts at residue 44; also called C137896", "assay": "flow cytometry, transfected 293T cells", "from_the_text": "as §1", "values": [
      {"binder": "B8", "binding result": "binds"},
      {"binder": "B9", "binding result": "binds"},
      {"binder": "B10", "binding result": "binds"},
      {"binder": "B11", "binding result": "binds"},
      {"binder": "B4", "binding result": "binds"}
    ]},
    {"target": "T4, Human Cadherin-19 (human, UniProt Q9H159 44-772)", "T4 construct": "also called CDH19; huCDH19", "assay": "FACS, endogenous CDH-19 on CHL-1 and Colo699 tumor cells", "method": "FACS binding assays were performed to evaluate the binding of the anti-Cadherin-19 receptor specific antibodies to endogenous Cadherin-19 receptor expressed on the CHL-1 tumor cell lines.\nFACs assays were performed by incubating hybridoma supernatants with 10,000 to 25,000 cells in PBS/2% Fetal bovine serum/2 mM Calcium Chloride at 4° C. for one hour followed by two washes with PBS/2% Fetal bovine serum/2 mM Calcium Chloride. Cells were then treated with florochrome-labeled secondary antibodies at 4° C. followed by one wash. The cells were resuspended in 50 μl of PBS/2% FBS and antibody binding was analyzed using a FACSCalibur™ instrument.", "values": [
      {"binder": "B1", "binding result": "binds"},
      {"binder": "B2", "binding result": "binds"},
      {"binder": "B3", "binding result": "binds"},
      {"binder": "B4", "binding result": "binds"},
      {"binder": "B5", "binding result": "binds"},
      {"binder": "B13", "binding result": "binds"},
      {"binder": "B14", "binding result": "binds"},
      {"binder": "B6", "binding result": "binds"},
      {"binder": "B7", "binding result": "binds"}
    ]}
  ]
}
